First the molecules themselves.
B1: h5E5-42 (antibody, V domains shown)
VH: QVQLVQSGAEVKKPGASVKVSCKASGYSFSGFYIDWVKQPPGKGLEWIGYIFPSNGETSYNQKFKGRVTMTVDKSTSTVYMELSSLRSEDTAVYYCARQAFYYFDYWGQGTTVTVSS
VL: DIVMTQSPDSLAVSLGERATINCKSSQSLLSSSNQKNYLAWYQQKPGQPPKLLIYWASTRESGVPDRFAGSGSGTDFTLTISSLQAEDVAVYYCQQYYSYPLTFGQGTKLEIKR
B2: h5E5-83 (antibody, V domains shown)
VH: EVQLVQSGAEVKKPGASVKVSCKASGYSFSGFYIDWVKQPPGKGLEWIGYIFPSNGETSYNQKFKGRATMTVDKSTSTVYMELSSLRSEDTAVYYCARQAFYYFDYWGQGTTVTVSS
VL: DIVMTQSPDSLAVSLGERATINCKSSQSLLSSSNQKNYLAWYQQKPGQAPRLLIYWASTRESGVPDRFAGSGSGTDFTLTISSLQAEDVAVYYCQQYYSYPLTFGQGTKLEIKR
B3: h5E5-73 (antibody, V domains shown)
VH: QVQLVQSGAEVKKPGASVKVSCKASGYSFTGFYIDWVKQPPGKGLEWIGYIFPSNGETSYNQKFKGRVTMTVDKSTSTVYMELSSLRSEDTAVYYCARQAFYYFDSWGQGTTVTVSS
VL: DIVMTQSPDSLAVSLGERATINCKSSQSLLSSSNQKNYLAWYQQKPGQAPRLLIYWASTRESGVPDRFAGSGSGTDFTLTISSLQAEDVAVYYCQQYYSYPLTFGQGTKLEIKR
B4: h5E5-22 (antibody, V domains shown)
VH: EVQLVQSGAEVKKPGASVKVSCKASGYSFTGFYIDWVKQPPGKGLEWIGYIFPSNGETSYNQKFKGRATMTVDKSTSTVYMELSSLRSEDTAVYYCARQAFYYFDYWGQGTTVTVSS
VL: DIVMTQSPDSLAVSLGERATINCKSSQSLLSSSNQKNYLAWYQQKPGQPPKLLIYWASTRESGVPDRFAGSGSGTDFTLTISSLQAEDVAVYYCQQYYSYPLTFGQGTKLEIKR
B5: h5E5-84 (antibody, V domains shown)
VH: EVQLVQSGAEVKKPGASVKVSCKASGYSFSGFYIDWVKQPPGKGLEWIGYIFPSNGETSYNQKFKGRATMTVDKSTSTVYMELSSLRSEDTAVYYCARQAFYYFDYWGQGTTVTVSS
VL: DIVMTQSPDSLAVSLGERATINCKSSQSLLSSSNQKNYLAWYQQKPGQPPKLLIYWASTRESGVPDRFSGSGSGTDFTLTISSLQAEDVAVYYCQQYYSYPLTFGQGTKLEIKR

The assay addresses human ILT3 (binding and competition assays, construct not stated) (human, UniProt Q8NHJ6 22-259). Description: binding to hILT3 (relative binding).
By EC50 is commonly meant the concentration needed to bring the measured effect to its halfway point. Low values mean greater potency, high ones weaker potency. For the molecule B1, the EC50 amounted to 0.05 µg/mL. To B2 belongs 0.1 µg/mL. As for B3, the half-maximal effective concentration (EC50) is 0.09 µg/mL. To B4 belongs 0.08 µg/mL; to B5, 0.08 µg/mL.

The values are drawn from patent US20250277032A1 (published 2025).
